PMC6150519
One block for each substance: values may come before it.

Tests used:
[1] = biological target: GIRK1/2-CFP
[2] = biological target: GIRK1/2-CFP; remark: listed apart in the source
[3] = biological target: GIRK1/2-CFP; assay: FRET or BRET; acceptor bleaching under TIRF illumination in living HEK293T cells co-transfected with receptor-YFP (or prestin-YFP) and GIRK1/2-CFP; G protein subunits not additionally transfected; absence or presence of oxo-M (10 uM)

agonist-induced GIRK channel current density (ΔImax), oxo-M 10 uM, tandem constructs M1R-YFP-34/100/265-GIRK1/2, PTX (-); decreased with the increase in the linker length [1]: 11.3 pA/pF
Substance: M1R-YFP (from UniProt P04761 1-460) (receptor)

agonist-induced GIRK channel current density (ΔImax), oxo-M 10 uM, tandem constructs M2R-YFP-100/265/535-GIRK1/2, PTX (-); not changed with the increases in the linker length [2]: 62 pA/pF
Substance: M2R-YFP (from UniProt P06199 1-466) (receptor)

FRET efficiency [3]: 5.5%
Substance: receptor-YFP with the long chain in the middle of M2R-i3 (K221-P379) replaced with SGGGS
